Source: the supplement of paper PMC10567573

B1: VAMP4 (parent)
chain: FLRGPSGPRFGPRNDKIKHVQNQV
B2: HDAC6 (parent)
chain: QYMNEGELRVLADTYDSVYLHPNS

Variants of: B1
Assay: protein stability index of a GFP-peptide fusion (GPS, HEK-293T) (PSI 1-6); higher = more stable
Settings: c terminus: a fixed tail appended
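Further: lentivirally expressed fusions sorted by FACS into six bins by GFP to DsRed ratio, PSI derived from sequencing read proportions per bin multiplied by bin number.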

Variant | protein stability index
Q23H | 2.55
Q23N | 2.98
Q23A | 2.81
Q23G | 1.8
Q23K | 2.22
Q23M | 2.2
Q23P | 3.04
Q23E | 3.39
Q23S | 2.54
Q23V | 2.6
Q23C | 2.23
Q23I | 2.14
Q23L | 2.81
Q23D | 3.04
Q23R | 2.87
Q23W | 1.84
K18P | 3.1
K18N | 2.83
K18C | 2.04
K18D | 2.74
K18L | 1.93
K18I | 2.31
K18G | 2.88

Variant | protein stability index
K18Q | 3.34
K18E | 3.06
K18Y | 2.15
K18M | 2.27
K18A | 3.24
K18T | 2.47
K18W | 1.48
K18H | 2.73
K18S | 3.11
K18R | 1.75
K18V | 2.91
H19R | 2.03
H19A | 2.81
H19M | 2.6
H19K | 2.35
H19T | 1.54
H19L | 2.72
H19V | 2.95
H19Q | 2.42
H19G | 2.86
H19F | 1.8
H19W | 1.57
H19S | 2.7

Variant | protein stability index
H19Y | 1.93
H19I | 2.55
H19E | 2.7
Q21D | 2.93
Q21C | 1.68
Q21Y | 2.11
Q21V | 2.83
Q21L | 1.75
Q21W | 1.41
Q21M | 1.85
Q21K | 2.81
Q21S | 2.47
Q21H | 3.2
Q21G | 2.55
Q21T | 2.29
Q21F | 2.42
Q21P | 2.91
Q21N | 3.59
K16Y | 2.28
K16W | 1.86
I17A | 2.88
I17V | 2.5
I17S | 2.34

Variant | protein stability index
I17L | 2.78
I17W | 1.53
I17Q | 2.72
I17E | 4.11
I17T | 3.16
I17N | 3.54
I17R | 3
I17D | 3.57
I17P | 2.84
I17K | 2.81
I17F | 2.81
I17H | 3.42
I17C | 2.87
V20R | 3.26
V20T | 2.87
V20D | 3.72
V20Q | 2.24
V20H | 3.3
V20G | 2.62
V20C | 2.15
V20N | 2.91
V20E | 3.91
V20Y | 2.46

Variant | protein stability index
V20A | 2.63
V20L | 2.9
V20W | 2.25
V20K | 3.23
V20I | 2.69
N22D | 3.48
N22L | 2.27
N22Y | 2.14
N22I | 1.51
N22A | 2.58
N22M | 1.57
N22F | 1.68
N22V | 1.74
N22E | 3.94
N22H | 2.18
N22W | 1.42
N22R | 2.25
N22Q | 2.48
N22T | 3.02
N22K | 2.88
N22P | 2.53
N22C | 2.56
N22G | 2.77

Variant | protein stability index
N22S | 3.25
V24C | 2.22
V24Y | 3
V24W | 2.82
V24S | 2.9
V24H | 3.18
V24A | 2.85
V24F | 2.53
V24E | 2.89
V24P | 2.94
V24D | 3.4
V24K | 3.46
V24M | 3.02
V24R | 3
V24I | 2.6
V24T | 3.08
V24N | 3.49
V24L | 2.67
V24Q | 2.76

Variants of: B2
Assay: as above
Settings: c terminus: a fixed tail appended

Variant | protein stability index
N4E | 3.02
N4I | 2.49
N4Q | 2.19
N4V | 1.68
N4L | 1.55
N4G | 1.89
N4P | 2.81
N4D | 1.61
N4T | 2.16
N4M | 2.76
N4K | 2.2
N4H | 2.23
N4F | 1.21
N4S | 2.05
N4Y | 1.93
N4A | 1.8
N4R | 2.97
N4C | 2.08
E5C | 1.96
E5T | 2.02
E5S | 1.92
E5D | 1.88
E5A | 2.95
E5V | 1.21
E5Y | 2.03

Variant | protein stability index
E5F | 1.72
E5L | 2.12
E5M | 1.8
E5G | 2.85
E5P | 2.57
E5K | 1.9
E5N | 3.15
E5H | 2.91
E7V | 1.5
E7W | 1.72
E7P | 2.64
E7S | 2.04
E7I | 1.81
E7Y | 1.44
E7D | 2.04
E7A | 1.96
E7N | 1.72
E7R | 1.55
E7T | 2.62
E7M | 2.81
E7Q | 1.66
E7F | 2.46
E7H | 2.26
E7K | 1.76
E7G | 3.04

Variant | protein stability index
E7L | 2.69
M3A | 3.17
M3K | 3.39
M3E | 3.88
M3C | 3.07
M3Q | 3.73
M3T | 2.99
M3N | 3.41
M3H | 3.64
M3Y | 2.56
M3P | 4.02
M3F | 2.15
M3W | 2.29
M3V | 3.46
M3L | 2.38
M3I | 3.39
M3D | 4.19
M3S | 3.23
M3R | 3.65
Q1E | 1.93
Q1M | 1.66
Q1C | 1.52
Q1R | 1.43
Q1W | 2.21
Q1G | 1.89

Variant | protein stability index
Q1F | 2.53
Q1K | 1.92
Q1P | 2.63
Q1A | 1.69
Q1I | 1.83
Q1D | 3.16
Q1T | 1.84
Q1Y | 1.69
Q1S | 2.04
R9K | 1.69
R9T | 2.14
R9G | 2.18
R9D | 2
R9E | 2.7
R9N | 2.67
R9C | 1.48
R9I | 2.13
R9L | 1.6
R9F | 3.31
R9W | 1.23
R9S | 2.05
R9Q | 2.65
R9P | 3.26
R9M | 1.46
R9Y | 1.87

Variant | protein stability index
R9A | 1.76
R9H | 3.19
R9V | 4.11
V10D | 3.61
V10I | 1.84
V10T | 2.18
V10A | 1.79
V10K | 2.01
V10P | 3.53
V10E | 2.46
V10Y | 2.95
V10W | 2.22
V10H | 2.31
V10F | 2.69
V10M | 2.08
V10S | 2.81
V10C | 2.51
V10G | 3.15
V10R | 1.92
V10N | 2.15
V10L | 1.66
V10Q | 3.27
G6S | 1.98
G6F | 2.94
G6P | 3.01

Variant | protein stability index
G6N | 2.18
G6Q | 1.91
G6E | 2.19
G6H | 1.63
G6K | 2.06
G6W | 1.88
G6V | 1.97
G6A | 3.02
G6M | 1.6
G6R | 2.03
G6T | 1.85
G6L | 2.51
G6C | 2.26
G6I | 1.72
G6Y | 2.5
G6D | 1.89
A12E | 2.36
A12D | 1.57
A12F | 2.89
Y2G | 3.27
Y2L | 2.68
Y2F | 2.2
Y2N | 4.07
Y2T | 2.9
Y2I | 1.94

Variant | protein stability index
Y2W | 2.11
Y2H | 2.13
Y2A | 1.43
Y2D | 3.19
Y2M | 1.73
Y2R | 3.3
Y2S | 2.71
Y2K | 3.46
Y2E | 2.9
Y2V | 3.27
Y2Q | 2.47
Y2P | 4.32
L11W | 2.64
L11T | 2
L11M | 2.98
L11V | 2.25
L11R | 2.61
L11Q | 2.32
L11N | 2.32
L11I | 1.78
L11K | 3.03
L11Y | 2.14
L11P | 3.49
L11C | 1.95
L11E | 2.36

Variant | protein stability index
L11S | 1.76
L11D | 3.01
L11A | 1.83
L11H | 3.13
L11F | 2.01
L11G | 2.46
L8E | 3.51
L8W | 1.33
L8A | 2.53
L8N | 2.62
L8M | 1.85
L8S | 2.55
L8I | 2.86
L8F | 1.52
L8Y | 2.96
L8K | 3
L8D | 2.7
L8T | 2.19
L8C | 2.33
L8V | 3.68
L8Q | 2.66
L8P | 3.84
L8G | 3.36
L8H | 2.45
L8R | 2.94
